From paper PMC5687031

Molecular target: full-length Spc29^2-253 (S. cerevisiae) (UniProt P33419)
Experiment: SAXS

Chain of full-length Spc29^2-253 (P33419 2-253): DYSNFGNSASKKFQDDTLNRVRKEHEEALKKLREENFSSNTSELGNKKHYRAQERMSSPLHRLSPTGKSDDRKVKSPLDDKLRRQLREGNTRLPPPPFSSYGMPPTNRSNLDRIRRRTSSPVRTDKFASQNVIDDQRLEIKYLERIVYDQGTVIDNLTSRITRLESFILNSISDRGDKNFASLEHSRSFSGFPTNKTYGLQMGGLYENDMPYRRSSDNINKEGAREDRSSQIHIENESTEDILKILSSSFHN

- stoichiometry N: 3 chains
Substance: full-length Spc29^2-253 (from UniProt P33419 2-253) (natural protein)
